The target of test [1] is T1, human 4-1BB (human, UniProt Q07011 24-255). Description: FACS cell binding.
The target in test [2] is T2, human CEACAM5 on cells (human, UniProt P06731 35-685).
T2 chain: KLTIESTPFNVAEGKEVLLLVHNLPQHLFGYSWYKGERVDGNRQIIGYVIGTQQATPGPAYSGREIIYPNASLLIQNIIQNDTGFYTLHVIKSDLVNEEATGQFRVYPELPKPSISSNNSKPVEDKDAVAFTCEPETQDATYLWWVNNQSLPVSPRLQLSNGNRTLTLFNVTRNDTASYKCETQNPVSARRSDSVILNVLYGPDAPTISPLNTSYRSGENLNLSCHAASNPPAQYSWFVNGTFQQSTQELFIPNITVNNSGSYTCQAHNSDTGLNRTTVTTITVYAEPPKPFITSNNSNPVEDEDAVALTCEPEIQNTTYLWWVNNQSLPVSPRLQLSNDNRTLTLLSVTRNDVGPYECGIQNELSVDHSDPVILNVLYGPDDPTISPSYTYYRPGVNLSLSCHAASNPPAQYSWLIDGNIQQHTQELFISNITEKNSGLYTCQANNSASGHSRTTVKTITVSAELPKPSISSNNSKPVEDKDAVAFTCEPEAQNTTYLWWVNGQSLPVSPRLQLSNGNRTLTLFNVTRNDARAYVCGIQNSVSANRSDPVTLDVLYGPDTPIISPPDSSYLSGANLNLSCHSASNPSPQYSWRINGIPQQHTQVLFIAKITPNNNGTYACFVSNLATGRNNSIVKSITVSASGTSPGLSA
Description: FACS cell binding; MKN-45 cells.

Test [3] deals with T1, human 4-1BB. Description: FACS cell binding. This is another data set of the same source.
The target in test [4] is T2, human CEACAM5 on cells. Nature of the test: FACS cell binding; MKN-45 cells.
Test [5] concerns the target T1, human 4-1BB. Nature of the test: FACS cell binding; plot key prints IMMU130-263-1-3.

Substitutions are numbered along the chain they refer to. Read-outs that look alike come from different tables or passages of the source.

T1 sequence (Q07011 24-255): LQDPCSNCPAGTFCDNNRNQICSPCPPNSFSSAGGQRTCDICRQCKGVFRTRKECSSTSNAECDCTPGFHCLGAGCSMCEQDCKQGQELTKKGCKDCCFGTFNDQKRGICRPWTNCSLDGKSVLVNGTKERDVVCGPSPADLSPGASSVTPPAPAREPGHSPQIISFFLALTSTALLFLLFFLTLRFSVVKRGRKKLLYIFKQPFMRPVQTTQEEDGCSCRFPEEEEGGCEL

B1: VV02-1LP-263 huNb_1_3 (Fc fusion)
VHH: EVQLLESGGGLVQPGGSLRLSCAASGFTFSSSAMSWARQTPGKGFEWVSGIYSGGSTYYTESVKDRFTISRDNSKNTVYLQMNSLKPEDTAVYYCATWGTLRFGVWAEYDHWGQGTQVTVSS
In the test with human 4-1BB [1], B1 had an EC50 of 0.53 nM.

B2: IMMU130-263-1-3_1 (bispecific antibody, V domains shown)
VH: EVQLVESGGGVVQPGRSLRLSCSASGFDFTTYWMSWVRQAPGKGLEWIGEIHPDSSTINYAPSLKDRFTISRDNAKNTLFLQMDSLRPEDTGVYFCASLYFGFPWFAYWGQGTPVTVSS
VL: DIQLTQSPSSLSASVGDRVTITCKASQDVGTSVAWYQQKPGKAPKLLIYWTSTRHTGVPSRFSGSGSGTDFTFTISSLQPEDIATYYCQQYSLYRSFGQGTKVEIK
VHH: B1 VHH with L5V, T40A
In the test with human CEACAM5 on cells [2], B2 registered an EC50 of 7.34 nM.

B3: IMMU130-263-1-3 (bispecific antibody)
heavy (part 1 of 2): B2 VH
heavy (part 2 of 2): GGGGSGGGGSGGGGSGGGGSEVQLLESGGGLVQPGGSLRLSCAASGFTFSSSAMSWARQTPGKGFEWVSGIYSGGSTYYTESVKDRFTISRDNSKNTVYLQMNSLKPEDTAVYYCATWGTLRFGVWAEYDHWGQGTQVTVSS
light: B2 VL
As to B3, the EC50 amounted to 0.58 nM in the test with human 4-1BB [3], 5.38 nM with human CEACAM5 on cells [4], 1.23 nM with human 4-1BB [5] and 8.47 nM with human CEACAM5 on cells [2].

B4: Labetuzumab (antibody, V domains shown)
VH: B2 VH
VL: B2 VL
B4: the EC50 stood at 3.48 nM in the test with human CEACAM5 on cells [4] and 5.31 nM with human CEACAM5 on cells [2].

B5: optimized bispecific antibody with 263 huNb-1-3_2 (bispecific antibody)
heavy (part 1 of 2): B2 VH
heavy (part 2 of 2): B3 heavy (part 2 of 2) with L25V, T60A, S94A, Q137L
light: B2 VL
B5: the EC50 turned out to be 1.2 nM with human 4-1BB [1] and 7.75 nM with human CEACAM5 on cells [2].

B6: VV02-1SP (1)-73 huNb_1_3 (Fc fusion)
VHH: EVDLVESGGGLVQPGGSLRLSCAVSGFTFSSSAMSWARQAPGKEFEWVSSIYSSGKTYYVESVKGRFTISRDNAKNTVYLQMSSLRPEDTAVYYCATWKTLRVGVWDESDYWGQGTLVTVSS
In the test with human 4-1BB [3], B6 registered an EC50 of 0.37 nM.

For orientation: EC50 means the concentration at which the effect is half-maximal.

(Values after US20250206834A1 (published 2025).)
